# Assay results from US20200017592A1 (Regeneron, published 2020).
# T1: full-length human IL-36R on cells (human, UniProt Q9HB29 20-575)
# T1 sequence (looked up): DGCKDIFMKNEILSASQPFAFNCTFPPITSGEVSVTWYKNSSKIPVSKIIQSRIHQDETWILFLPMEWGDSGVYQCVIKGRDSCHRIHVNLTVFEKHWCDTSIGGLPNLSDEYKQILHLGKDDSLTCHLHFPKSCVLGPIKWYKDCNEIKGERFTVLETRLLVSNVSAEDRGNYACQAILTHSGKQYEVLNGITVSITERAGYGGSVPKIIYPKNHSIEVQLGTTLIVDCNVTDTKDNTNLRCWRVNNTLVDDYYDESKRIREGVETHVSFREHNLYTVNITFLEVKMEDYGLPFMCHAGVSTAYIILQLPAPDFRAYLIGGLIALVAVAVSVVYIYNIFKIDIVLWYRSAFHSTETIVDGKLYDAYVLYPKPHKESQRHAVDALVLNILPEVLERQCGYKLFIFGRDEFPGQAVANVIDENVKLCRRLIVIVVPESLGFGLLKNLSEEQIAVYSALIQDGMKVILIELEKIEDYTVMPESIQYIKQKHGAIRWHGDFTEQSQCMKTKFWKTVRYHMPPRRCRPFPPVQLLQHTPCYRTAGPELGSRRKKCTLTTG
# T2: Macaca fascicularis IL-36R on cells (Macaca fascicularis, UniProt A0A2K5WSK9 20-558)
# T2 sequence: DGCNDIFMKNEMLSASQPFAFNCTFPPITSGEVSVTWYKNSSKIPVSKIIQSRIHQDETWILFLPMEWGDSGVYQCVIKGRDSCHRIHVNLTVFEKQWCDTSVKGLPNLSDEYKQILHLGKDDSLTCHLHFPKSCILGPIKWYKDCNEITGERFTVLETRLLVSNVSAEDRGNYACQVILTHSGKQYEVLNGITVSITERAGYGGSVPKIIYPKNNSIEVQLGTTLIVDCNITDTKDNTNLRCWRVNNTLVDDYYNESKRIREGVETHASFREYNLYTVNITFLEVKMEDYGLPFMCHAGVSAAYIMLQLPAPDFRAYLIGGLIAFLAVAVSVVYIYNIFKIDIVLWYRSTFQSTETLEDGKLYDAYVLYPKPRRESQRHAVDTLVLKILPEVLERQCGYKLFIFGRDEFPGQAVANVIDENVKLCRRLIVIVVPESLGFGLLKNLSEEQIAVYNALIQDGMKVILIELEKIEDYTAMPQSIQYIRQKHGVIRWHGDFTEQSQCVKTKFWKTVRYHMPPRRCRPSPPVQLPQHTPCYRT
# Legend:
# [1] = molecular target: T1, full-length human IL-36R on cells; assay: cell-based or functional assay
# [2] = molecular target: T3, recombinant human IL-36R extracellular domain expressed with a C-terminal myc-myc-hexahistidine tag (human, UniProt Q9HB29 20-337); assay: SPR (Biacore 4000), mAb captured on anti-human Fc, 37°C
# T3 construct: also called hIL-36R-MMH; hIL-36R.mmH
# Protocol: (§1) Equilibrium dissociation constants (KD values) for IL-36R binding to purified anti-IL-36R antibodies were determined using a real-time surface plasmon resonance biosensor using a Biacore 4000 instrument. The Biacore sensor surface was first derivatized by amine coupling with a monoclonal mouse anti-human Fc antibody (GE, # BR-1008-39) to capture anti-IL-36R monoclonal antibodies. All binding studies were performed in 0.01 M Hepes pH 7.4, 0.15 M NaCl, 3 mM EDTA, and 0.05% v/v Surfactant Tween-20 (HBS-ET running buffer) at 25° C. and 37° C. Different concentrations of IL-36R reagents, human IL-36R extracellular domain expressed with a C-terminal myc-myc-hexahistidine tag (hIL-36R-MMH), Macaca fascicularis IL-36R extracellular domain expressed with a C-terminal myc-myc-hexahistidine tag (mfIL-36R-MMH: mROR1 signal sequence (M1-A29). Macaca fascicularis IL36R_ecto domain (D20-A336).mycmycHis6), human IL-36R extracellular domain expressed with a C-terminal mouse IgG2a Fc tag (hIL-36R-mFc: mROR1 signal sequence (M1-A29)-human IL36R (D20-Y337)-mouse IgG2aFc (E98-K330)) or an in-line fusion protein of human IL-36R extracellular domain and IL1RAcP extracellular domain expressed with mouse IgG2a Fc tag (hIL-36R-Trap-mFc: mROR1 signal sequence (M1-A29)-human IL36R ecto domain (D20-Y337)-human IL1RacP ecto domain(S21-E359)-mouse IgG2aFc) in HBS-ET running buffer (ranging from 100 nM to 3.7 nM, 3-fold dilutions) were injected over the anti-IL-36R antibody captured surface for 4 minutes at a flow rate of 30 μL/minute and their dissociation in HBS-ET running buffer was monitored for 10 minutes. Kinetic association rate constant (kₐ) and dissociation rate constant (kd) were determined by fitting the real-time sensorgrams to a 1:1 binding model using Scrubber 2.0c curve fitting software. Binding dissociation equilibrium constants (KD) and dissociative half-lives (t_{1/2}) were calculated from the kinetic rate constants as: […]
# [3] = molecular target: T2, Macaca fascicularis IL-36R on cells; assay: cell-based or functional assay
# [4] = molecular target: T3, recombinant human IL-36R extracellular …; assay: SPR (Biacore 4000), mAb captured on anti-human Fc, 25°C
# Protocol: as §1
# [5] = molecular target: T1, full-length human IL-36R on cells; assay: cell-based or functional assay; remark: listed apart in the source
# T3 sequence (Q9HB29 other isoform, or with tags, fused parts or gaps limits assumed): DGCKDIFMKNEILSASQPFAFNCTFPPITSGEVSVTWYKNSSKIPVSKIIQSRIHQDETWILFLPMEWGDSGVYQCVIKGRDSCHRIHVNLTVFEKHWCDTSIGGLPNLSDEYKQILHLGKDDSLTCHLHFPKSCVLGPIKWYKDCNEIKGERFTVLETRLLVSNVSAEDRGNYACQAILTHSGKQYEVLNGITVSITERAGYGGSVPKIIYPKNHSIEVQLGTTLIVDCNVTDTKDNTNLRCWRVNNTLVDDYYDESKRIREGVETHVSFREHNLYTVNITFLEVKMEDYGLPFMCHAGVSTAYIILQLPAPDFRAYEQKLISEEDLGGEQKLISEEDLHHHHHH
"IC50, IL-8 production of primary human cells stimulated with 10 nM IL-36α, β and γ [1] [nM]",100 nM hIL-36R-MMH Bound (RU) [2] [RU],Kd [2] [nM],koff [2] [s⁻¹],kon [2] [M⁻¹ s⁻¹],t½ [2] [min],"IC50 [M], NFκB-luciferase, 300 pM hIL-36γ [3] [M]","IC50 [M], NFκB-luciferase, 500 pM hIL-36α [3] [M]","IC50 [M], NFκB-luciferase, 600 pM hIL-36β [3] [M]","Max Inhibition (%), NFκB-luciferase, 300 pM hIL-36γ [3] [%]","Max Inhibition (%), NFκB-luciferase, 500 pM hIL-36α [3] [%]","Max Inhibition (%), NFκB-luciferase, 600 pM hIL-36β [3] [%]",100 nM hIL-36R-MMH Bound (RU) [4] [RU],Kd [4] [nM],koff [4] [s⁻¹],kon [4] [M⁻¹ s⁻¹],t½ [4] [min],"IC50 [M], NFκB-luciferase, 10 pM hIL-36γ [5] [M]","IC50 [M], NFκB-luciferase, 15 pM hIL-36β [5] [M]","IC50 [M], NFκB-luciferase, 20 pM hIL-36α [5] [M]",Binder,also measured
1 to 6,113,8.65,0.0013,150000,9,8.5e-11,6e-11,1.2e-10,100,100,100,89,4.08,0.000495,121000,23,1.2e-10,1.2e-10,1e-10,"H4H14706P2 (antibody, human IgG4 S228P, kappa, V domains shown) VH: EVQLVESGGGLVQPGRSLRLSCTASGFTFDDYAIHWVRQSPGKGLEWVSVISWNSDVIGYADSVKGRFTISRDNAKNSLYLQMNSLRAEDTALYYCAKGYNWNFFDYWGQGTLVTVSS VL: EIVLTQSPATLSLSPGERATLSCRASQSVSSYLAWYQQKPGQAPRLLIYNAANRATDIPARFSGSGSGTDFTLTISSLEPEDFAVYYCQQRSNWPLTFGGGTKVEIKR","Max Inhibition (%), NFκB-luciferase, 10 pM hIL-36γ [5]: 99%; Max Inhibition (%), NFκB-luciferase, 15 pM hIL-36β [5]: 101%; Max Inhibition (%), NFκB-luciferase, 20 pM hIL-36α [5]: 101%"
1 to 6,106,13.6,0.00186,136000,6,1.2e-10,8.9e-11,1.2e-10,100,99,100,76,6.82,0.000623,91400,19,1.6e-10,2e-10,1.3e-10,"H4H14708P2 (antibody, human IgG4 S228P, kappa, V domains shown) VH: EVQLVESGGDLVQPGRSLRLSCAASGFTFDDYAMHWVRQAPGKGLEWVSVISWNSDVIAYSDSVKGRFTISRDNAKNSLYLQMNSLRTEDTALYYCTKGHKWSFFDYWGQGTLVTVSS VL: EIVLTQSPATLSLSPGERATLSCRASQSISSYLAWYQQKPGQAPRLLIFNVANRATDIPARFSGSGSGTDFTLTISSLEPEDFAVYYCQQRSNWPLTFGGGTKVEIKR","Max Inhibition (%), NFκB-luciferase, 10 pM hIL-36γ [5]: 99%; Max Inhibition (%), NFκB-luciferase, 15 pM hIL-36β [5]: 100%; Max Inhibition (%), NFκB-luciferase, 20 pM hIL-36α [5]: 101%"
